From patent US20090136998A1 (Stanford University, published 2009)

Target: T1, human VEGFR-2 expressed on porcine aortic endothelial cells (PAE/VEGFR-2) (human, UniProt P35968 20-1356)
T1 construct: whole, on cells; also called KDR; PAE/KDR cells
Assay: competitive bioluminescence ELISA on PAE/VEGFR-2 cells; cold VEGF 121 varied against RL8-VEGF
Protocol: FIG. 10A illustrates coomassie Blue staining of purified fusion proteins and control proteins. […] FIG. 10B illustrates a Western Blot of purified proteins. […] FIG. 10C illustrates competitive bioluminescence ELISA on PAE/VEGFR-2 overexpressing cells.
Cells were washed and incubated with 0.5 μg of coelenterazine substrate and immediately imaged in the Xenogen IVIS 100 optical cooled charge-coupled device (CCD) (Xenogen, Alameda, Calif.). Regions of interest (ROIs) were drawn over the cell area and quantified in average photons/second/centimeter²/steradian (photons/s/cm²/sr) by using […] version 2.50 (Xenogen, Alameda, Calif.).

T1 sequence (P35968 20-1356): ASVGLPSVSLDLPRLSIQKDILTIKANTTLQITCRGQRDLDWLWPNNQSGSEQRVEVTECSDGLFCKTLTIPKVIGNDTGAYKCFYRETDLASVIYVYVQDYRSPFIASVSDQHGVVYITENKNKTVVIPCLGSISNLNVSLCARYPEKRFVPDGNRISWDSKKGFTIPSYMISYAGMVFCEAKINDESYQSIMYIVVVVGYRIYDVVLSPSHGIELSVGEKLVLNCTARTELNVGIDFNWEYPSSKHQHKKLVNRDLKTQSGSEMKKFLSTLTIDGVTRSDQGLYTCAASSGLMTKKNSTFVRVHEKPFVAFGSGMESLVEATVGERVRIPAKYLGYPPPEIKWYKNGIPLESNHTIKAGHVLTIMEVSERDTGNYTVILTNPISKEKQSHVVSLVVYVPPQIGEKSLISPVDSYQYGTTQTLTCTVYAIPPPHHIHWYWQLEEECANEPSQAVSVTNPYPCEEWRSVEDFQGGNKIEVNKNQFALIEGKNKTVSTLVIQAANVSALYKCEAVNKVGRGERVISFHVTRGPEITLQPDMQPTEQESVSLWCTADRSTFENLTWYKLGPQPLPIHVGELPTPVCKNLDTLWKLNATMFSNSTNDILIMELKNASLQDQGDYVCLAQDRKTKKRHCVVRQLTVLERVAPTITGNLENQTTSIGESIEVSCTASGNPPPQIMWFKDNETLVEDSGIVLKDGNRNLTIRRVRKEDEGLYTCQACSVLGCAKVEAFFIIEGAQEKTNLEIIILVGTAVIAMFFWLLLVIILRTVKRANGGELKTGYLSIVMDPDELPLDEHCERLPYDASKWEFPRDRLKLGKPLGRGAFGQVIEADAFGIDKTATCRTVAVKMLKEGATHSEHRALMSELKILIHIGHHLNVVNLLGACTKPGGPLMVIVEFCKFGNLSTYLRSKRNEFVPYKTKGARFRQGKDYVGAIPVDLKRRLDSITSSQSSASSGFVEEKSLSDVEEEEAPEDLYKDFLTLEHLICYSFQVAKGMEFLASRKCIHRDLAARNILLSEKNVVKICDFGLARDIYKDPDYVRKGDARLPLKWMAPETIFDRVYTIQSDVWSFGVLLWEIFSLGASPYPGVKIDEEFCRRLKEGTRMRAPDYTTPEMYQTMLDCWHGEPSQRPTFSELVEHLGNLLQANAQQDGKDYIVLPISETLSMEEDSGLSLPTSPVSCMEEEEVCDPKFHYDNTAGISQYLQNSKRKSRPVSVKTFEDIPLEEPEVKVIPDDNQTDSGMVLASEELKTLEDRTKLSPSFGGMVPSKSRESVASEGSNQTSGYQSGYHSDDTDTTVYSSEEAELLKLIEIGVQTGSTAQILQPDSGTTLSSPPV

IC50: 0.045 µg/mL
B1: recombinant human VEGF 121 (PeproTech) (ligand, UniProt P15692-9 27-147, looked up)
chain: APMAEGGGQNHHEVVKFMDVYQRSYCHPIETLVDIFQEYPDEIEYIFKPSCVPLMRCGGCCNDEGLECVPTEESNITMQIMRIKPHQGQHIGEMSFLQHNKCECRPKKDRARQEKCDKPRR
